This passage reports stoichiometry N results from article PMC9911869.

The experiment has as its target recombinant pullulanase from Manihot esculenta Crantz (rMePUL), mature form without the transit peptide (Manihot esculenta Crantz (cassava)). As to the kind of experiment: SEC; purified rMePUL on an MAbPac SEC-1 column (4 x 300 mm), 25 mM phosphate buffer pH 6.8 with 300 mM NaCl, 0.2 mL/min, 30°C, A280; calibrated with Bio-Rad gel filtration standards; monomer and dimer peaks. (In general: Size exclusion chromatography separates by hydrodynamic size, large species first.)

For orientation: stoichiometry N means the number of molecules, sites or subunits per partner or assembly. For “recombinant pullulanase from Manihot esculenta Crantz (rMePUL), mature form without the transit peptide (enzyme)”, the stoichiometry N amounted to 2.
